Data on five molecules can be found in patent US20210363526A1, “Use of Non-Coding Nucleic Acid for Crop Improvement and Protection Against Microbes” (University of Kentucky Research Foundation, priority 2020, published 2021).

In data set [1] the test system is Pseudomonas syringae DC 3000. The data set is described as follows: SAR (systemic acquired resistance) assay: local treatment, distal leaves challenged with virulent pathogen. Particulars: for SAR in tas3a mutant plants: localized application to tas3a plants, AzA 1000 μM; for SAR in tas3a mutant plants / SAR in ago1 plants / SAR in ago7 plants: SA 500 μM, Pip 1000 μM, G3P 100 μM, DC3000 48 h later; for SAR in ago1 plants: localized application to ago1 plants; for SAR in ago7 plants: localized application to ago7 plants. The data set is classed as in vivo, Arabidopsis. On the procedure:
Pathogen infection and collection of phloem exudate—Inoculations with Pseudomonas syringae DC 3000 were conducted as described before. The bacterial cultures were grown overnight in King's B medium containing rifampicin and/or kanamycin. For analysis of SAR, the primary leaves were inoculated with MgCl2 or the avr bacteria (10^7 cfu ml^−1) and, 48 h later, the systemic leaves were inoculated with vir bacteria (10^5 cfu m1^−1). Unless noted otherwise, samples from the systemic leaves were harvested at 3 dpi. Petiole exudates were collected in diethyl pyrocarbonate (DEPC) treated water as described earlier. […] PEX RNA was extracted using the TRIzol reagent, quantified using nanodrop and cDNA synthesized from PEX RNA was evaluated for contamination with leaf RNA by assaying for amplification of Rubisco genes. Each sample was run in triplicates and UBC9 expression levels were used as internal control for normalization. Cycle threshold values were calculated by SDS 2.3 software.
Chemical and RNA treatments—SA, G3P, AzA, and Pip treatments were carried out by using 500 μM, 100 μM, 1000 μM, and 1000 μM solutions, respectively. TAS3a RNA was suspended at a concentration of 0.0075-75 ng/μ1 of DEPC water and ˜40 μl was infiltrated per leaf. AzA was prepared in methanol and diluted in water. SA, G3P and Pip were prepared and diluted in water. All dilutions were freshly prepared prior to performing biological experiments.
Statistics and reproducibility—For pathogen assays, ˜16 plants/ genotype/treatment were analyzed in a single experiment. At least 3-4 technical replicates/genotype/treatment were plated. For metabolite quantification, ˜12 plants/genotype/treatment were analyzed in each experiment. Unless otherwise mentioned error bars indicate SD.

For data set [2], the system named is isolated protoplasts. The data set is described as follows: Uptake assay of 32P-TAS3a555 into isolated protoplasts. Particulars: protoplasts incubated with 2 μM 32P-TAS3a555 for 1 h. In kind it is cell-based, Arabidopsis. From the text: (§1) FIGS. 9A-H show images and graphs illustrating that TAS3a RNA contains two overlapping open reading frames. (A) Nucleotide sequence of mature TAS3a RNA (SEQ ID NO: 1). Region shaded in purple and gray indicates overlapping open reading frames. Nucleotides shaded in yellow are miR390-AGO7 targeting sites on TAS3a transcript. Arrows indicate position of forward and reverse primers used for quantitative RT-PCR. Residues in red indicate alternate polyadenylation sites. (B) Real-time quantitative RT-PCR showing relative expression levels of ARF3 in Col-0 plants treated with buffer or Tas3a555 for 24 h. The error bars indicate SD (n=4). Results are representative of two independent experiments. Asterisks denote a significant difference (t test, P<0.0001). (C) Uptake assays showing percentage of ^32P-TAS3a555 transported into isolated protoplasts. Fresh protoplasts (10^6/ml) were incubated with 2 μM ^32P-TAS3a555 for 1 h, analyzed microscopically before and after four washes and quantified for the amount of radiolabel. The experiment was repeated three times with similar results. (D) RNA gel electrophoresis of in vitro synthesized TAS3a transcripts used in this study. (E) Typical morphological phenotypes of DC3000 inoculated distal leaves of Col-0 and tas3a plants. […]

Data set [3] has as its system auxin responsive factor (ARF) 3. The data set is described as follows: Real-time quantitative RT-PCR of ARF3 expression after TAS3a transcript application. In kind it is in vivo, Arabidopsis. Particulars: Col-0 plants, exogenous application, 24 h.
Text: as §1, with “(C) Uptake assays showing percentage of ^32P-TAS3a555 transported into isolated protoplasts.” left out, “radiolabel.” for “radiolabel. The experiment was repeated three times with similar results. (D) RNA gel electrophoresis of in vitro synthesized TAS3a transcripts used in this study. (E) Typical morphological phenotypes of DC3000 inoculated distal leaves of Col-0 and tas3a plants.”
RNA extraction, quantitative real-time PCR, and in vitro transcription—Small-scale extraction of RNA from two or three leaves (per sample) was performed with the TRIzol reagent (Invitrogen, CA), following the manufacturer's instructions. RNA quality and concentration were determined by gel electrophoresis and determination of A260. […] Quantitative RT-PCR was carried out as described before. […] Cycle threshold values were calculated by SDS 2.3 software.

Data set [4] deals with G3P. The data set is described as follows: G3P quantification after localized TAS3a application. The data set is classed as in vivo, Arabidopsis. Particulars: Col-0, localized application, 24 h.
Data set [5] has as its system SA. The data set is described as follows: SA quantification after localized TAS3a application. In kind it is in vivo, Arabidopsis. Particulars: Col-0, localized application.
For data set [6], the system named is ROS. The data set is described as follows: ROS (H2O2, DAB staining) after localized TAS3a application. The data set is classed as in vivo, Arabidopsis. Particulars: Col-0, localized application. On the procedure:
FIGS. 12A-D show graphs and images illustrating that exogenous application of TAS3a induces G3P but not SA, Pip, or ROS. (A) SA (left panel) and SAG (right panel) levels in Col-0 plants infiltrated with MgCl2, avrRpt2 or TAS3a transcripts. Leaf samples were collected 24 and 48 h post treatments. The error bars indicate SD (n=4). Asterisks denote a significant difference with respective mock-inoculated samples (t test, P<0.0001). (B) Pip levels in local tissues of Col-0 plants infiltrated with MgCl2 (mock), avrRpt2 or TAS3a transcripts. The leaves were sampled 48 h post treatments. Asterisks denote a significant difference with mock (t test, P<0.0001). The experiment was repeated two times with similar results. (C) H2O2 levels in local tissues of Col-0 plants after mock (MgCl2), pathogen (avrRpt2) or TAS3a treatments. The leaves were sampled 24 h post treatments and stained with DAB (3,3-diaminobenzidine). The experiment was repeated two times with similar results. (D) G3P levels in local tissues of water or 555 bp TAS3a transcript treated Col-0 plants. The leaves were sampled 24 h post treatments and the experiment was repeated two times with similar results. Asterisks denote a significant difference with respective mock-inoculated samples (t test, P<0.001).

The test system of data set [7] is Pip. The data set is described as follows: Pip quantification after localized TAS3a application. In kind it is in vivo, Arabidopsis. Particulars: Col-0, localized application.

“Also recorded” adds a separate entry of the source.

With `O=C(O)CCCCCCCC(=O)O` [AzA, azelaic acid], the “SAR in tas3a mutant plants” value in data set [1] is listed as “did not restore SAR”.
With `O=P(O)(O)OCC(O)CO` (stereo not drawn) [G3P, glycerol-3-phosphate], in data set [1], the “SAR in ago1 plants” value is “unable to restore SAR”, the “SAR in ago7 plants” value is recorded as “unable to restore SAR” and the “SAR in tas3a mutant plants” value is “did not restore SAR”.
Turning to `O=C(O)C1CCCCN1` (stereo not drawn) [Pip, pipecolic acid], in data set [1], the “SAR in ago1 plants” value is recorded as “unable to restore SAR”, the “SAR in ago7 plants” value is “unable to restore SAR” and the “SAR in tas3a mutant plants” value was “did not restore SAR”.
In the case of `O=C(O)c1ccccc1O` [SA, salicylic acid], in data set [1], the “SAR in ago1 plants” value is “unable to restore SAR”, the “SAR in ago7 plants” value is “unable to restore SAR” and the “SAR in tas3a mutant plants” value is recorded as “did not restore SAR”.

B1: TAS3a transcript: exogenously applied in vitro transcribed TAS3a RNA, length not stated at the place (figure legends: 555 nt) (nucleic acid, listed as Arabidopsis thaliana)
chain: AUCCCACCGUUUCUUAAGACUCUCUCUCUUUCUGUUUUCUAUUUCUCUCUCUCUCAAAUGAAAGAGAGAGAAGAGCUCCCAUGGAUGAAAUUAGCGAGACCGAAGUUUCUCCAAGGCAUUAAGGAAAACAUAACCUCCGUGAUGCAUAGAGAUUAUUGGAUCCGCUGUGCUGAGACAUUGAGUUUUUCUUCGGCAUUCCAGUUUCAAUGAUAAAGCGGUGUUAUCCUAUCUGAGCUUUUAGUCGGAUUUUUUCUUUUCAAUUAUUGUGUUUUAUCUAGAUGAUGCAUUUCAUUAUUCUCUUUUUCUUGACCUUGUAAGGCCUUUUCUUGACCUUGUAAGACCCCAUCUCUUUCUAAACGUUUUAUUAUUUUCUCGUUUUACAGAUUCUAUUCUAUCUCUUCUCAAUAUAGAAUAGAUAUCUAUCUCUACCUCUAAUUCGUUCGAGUCAUUUUCUCCUACCUUGUCUAUCCCUCCUGAGCUAAUCUCCACAUAUAUCUUUUGUUUGUUAUUGAUGUAUGGUUGACAUAAAUUCAAUAAAGAAGUUGACGUUUUUCU
For B1, the “uptake in isolated protoplasts” value in data set [2] was “confirmed by uptake”. Moreover, in data set [3], the “expression of TAS3a target gene ARF3” value was “suppressed”. Besides, the G3P levels entry in data set [4] is “did increase”; in data set [4] (listed as TAS3a), “induces”. Moreover, the “SAR induction in wild-type plants” value in data set [1] (localized application to wild-type Col-0, virulent DC3000 inoculated on distal leaves 48 h post-local treatment, transcripts 0.039 nmol/ml, Tasi-ARFs 1 μM (figure legends)) is “confer robust SAR; also recorded: able to induce SAR”. Also, the SA accumulation entry is given as “did not induce” in data set [5] and “not” in data set [5] (listed as TAS3a). The ROS accumulation result in data set [6] is “did not induce”; in data set [6] (listed as TAS3a), “not”. Besides, the Pip accumulation entry in data set [7] is given as “did not induce”; in data set [7] (listed as TAS3a), “not”.
